The record followed here is US20130236430A1, “PROLIFERATION, SEPARATION AND TRANSPLANTATION OF INHIBITORY NEURON PROGENITORS AND PROLIFERATION PROMOTING SUBSTANCES FOR THE PROGENITORS” (priority 2010, published 2013).

A short description of data set [1]: Infusion of peroxidase tracer protein into the cistern magna, distribution visualized by DAB reaction. Type of data set: in vivo. The following applies: infused into cistern magna of mouse, formalin fixing after 30 minutes; FIG. 12. From the text: In the case of the microperoxidase being not able to penetrate, a barrier corresponding to the blood brain barrier is judged to be present.
It has already discussed that the most of the inhibitory neuron progenitors were distributed to the proximity to the brain surface or the subventricular zone. In order to establish a technique for delivering Activin A to the proximity to the brain surface or the subventricular zone, a protein which can readily be detected was employed instead of Activin A itself in a monitoring experiment. The protein employed was a microperoxidase which was a peptide obtained by enzymatic degradation of cytochrome C and purification of a heme-containing moiety. A caudal part of a mouse cerebellum has a large subarachnoid cavity referred to as the cistern magna, into which the microperoxidase was infused, and after 30 minutes the formalin fixing was conducted and the enzyme distribution was visualized by a color development via DAB reaction (peroxidase reaction). It is defined that when the microperoxidase cannot permeate then a barrier corresponding to the blood brain barrier exists. […] It means that there was no barrier corresponding to BBB between the subarachnoid cavity and the brain parenchyma (the boundary is the pia matter) or between the ventricle and the brain parenchyma (the boundary is a ventricular zone). […]

Data set [2] concerns inhibitory neuron progenitors (GFP positive cells from GAD67-GFP P0 mouse cerebral cortex). Kind of data set: BrdU uptake into DNA of sorted GFP positive cells cultured in neural stem cell culture medium with or without Activin A. Particulars: neural stem cell culture medium with (M+A) or without (M) Activin A at 20 ng/ml; FIG. 10. Type of data set: cell-based. The protocol:
The cerebral cortex of a GAD67-GFP P0 mouse was taken out, treated with a protease (trypsin) to disperse the cells, which were subjected to a cell sorter to obtain GFP positive cells. A neural stem cell culture medium (Neurobasal medium +5% B27 supplement, 20 ng/ml bFGF, 20 ng/ml EGF) was combined with a E18 mouse fetal brain tissue and cultured overnight for conditioning, thereafter the cells were removed and then 5 μg/ml of BrdU was added and the GFP positive cells taken out by the cell sorter were cultured for 2 to 7 days and then fixed. As a result, a part of the GFP positive GABAergic neuron progenitors was confirmed to uptake BrdU in a conditioned neural stem cell culture medium to undergo a cell division (FIG. 9). When the GFP positive cells were cultured in a neural stem cell culture medium which had not been conditioned with the fetal brain tissue, the image as of FIG. 9 was not obtained.
The proliferation may be successful in the neural stem cell culture medium supplemented with essential proliferation factors, thus establishing an essential proliferation factor detection system.

The subject of data set [3] is inhibitory neuron progenitors in the brain. Kind of data set: In vivo infusion of Activin A solution into the brain of juvenile GAD67-GFP mouse, EdU labelling, histological observation. Particulars: P3 GAD67-GFP mouse; 1 μl of 1 μg/ml Activin A solution, one side; EdU i.p. after 30 minutes; examined after 1 week; FIG. 11. The protocol:
Thereafter, the animal was maintained for 1 week, anesthetized, fixed, and examined histologically.
Also in order to verify the in vivo effect of Activin A, an Activin A solution was injected directly into the brain of a 3-day old (P3) juvenile mouse. Thirty minutes after this addition, EdU was injected intraperitoneally. […] Then the subsequent issue is a method for delivering Activin A to the inhibitory neuron progenitors inside the brain. Such a method is preferably a method avoiding any damage to the brain, such as penetration of an injection needle.

For the molecule microperoxidase, in data set [1], the “distribution from the cistern via the ventricles to the lateral ventricle and into the brain parenchyma” value is listed as “migrated from the surface of the lateral ventricle to the brain parenchyma”; the “permeation from the subarachnoid cavity through the pia matter into the brain parenchyma” value is “permeated from the pia matter into the brain parenchyma”.

B1: Activin A (protein, UniProt P08476 311-426, looked up)
Inhibin beta A chain: GLECDGKVNICCKKQFFVSFKDIGWNDWIIAPSGYHANYCEGECPSHIAGTSGSSLSFHSTVINHYRMRGHSPFANLKSCCVPTKLRPMSMLYYDDGQNIIKKDIQNMIVEECGCS
modifications: Inhibin beta A chain
As to B1, in data set [2], the “uptake of BrdU into the DNA (increase in the DNA amount associated with cell division)” value is given as “increase in the DNA amount associated with the cell division was evident”. In data set [3], the “EdU positive cells (considered pia progenitors) in the pia matter on the infusion side” value is listed as “a large number” and the “number of GFP/EdU double-stained inhibitory neurons in the infused hemisphere compared with the opposite hemisphere” value is recorded as “significantly larger number”.
